Laboratory results taken from paper PMC5103067, “Structural basis of GM-CSF and IL-2 sequestration by the viral decoy receptor GIF” (Nature Communications, 2016).

T1: Orf virus GM-CSF/IL-2 inhibition factor (GIF), residues 1-265, C-terminal His6-tag (Orf virus, UniProt Q9J5U5, N-linked glycans)
T1 construct: also called His-tagged GIF; Orf GIF; source: HEK293T, transient expression (pHLsec), secreted; alone purified by IMAC and SEC with 0.15% CHAPS
T1 sequence: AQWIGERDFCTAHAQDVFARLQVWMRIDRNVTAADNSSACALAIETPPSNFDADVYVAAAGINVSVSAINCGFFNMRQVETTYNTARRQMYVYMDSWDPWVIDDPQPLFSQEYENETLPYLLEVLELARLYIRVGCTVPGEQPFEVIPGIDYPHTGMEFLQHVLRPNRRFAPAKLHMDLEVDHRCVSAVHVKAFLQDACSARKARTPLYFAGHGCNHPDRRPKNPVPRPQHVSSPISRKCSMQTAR

T2: Biotinylated Orf GIF, residues 1-265, C-terminal AviTag (Orf virus, UniProt Q9J5U5, biotin (AviTag, by co-expressed E. coli BirA))
T2 chain: T1 sequence

T3: Biotinylated Orf GIF, residues 1-265, C-terminal AviTag (Orf virus, UniProt Q9J5U5, biotin (AviTag, by co-expressed E. coli BirA))
T3 construct: also called biotinylated GIF; wild-type GIF; source: HEK293T, co-transfected with BirA (pDisplayBirA-ER), expression medium desalted into HBS; not shown: AviTag, C-terminal, kept
T3 sequence: T1 sequence

B1: ovine IL-2 (interleukin-2), residues 21-155, as used as the ligand in BLI (ligand)
chain: APTSSSTGNTMKEVKSLLLDLQLLLEKVKNPENLKLSRMHTFNFYMPKVNATELKHLKCLLEELKLLEEVLDLAPSKNLNTREIKDSMDNIKRIVLELQGSETRFTCEYDDATVKAVEFLNKWITFCQSIYSTMT
B2: ovine IL-2, residues 21-155, C-terminal His6-tag, from HEK293T (ligand, UniProt P19114 21-155, looked up)
chain: B1 chain
notes: also called oIL-2; source: HEK293T, transient expression (pHLsec); purified (TALON IMAC, SEC) or co-expressed with GIF and purified as a complex
B3: ovine IL-2 as used as ligand in bio-layer interferometry (ligand, UniProt P19114 21-155, looked up)
chain: B1 chain
notes: also called oIL-2
B4: ovine GM-CSF (granulocyte macrophage colony-stimulating factor), residues 18-144, as used as the ligand in BLI (ligand)
chain: APTRQPSPVTRPWQHVDAIKEALSLLNDSTDTAAVMDETVEVVSEMFDSQEPTCLQTRLELYKQGLRGSLTSLTGSLTMMASHYKKHCPPTQETSCETQIITFKSFKENLKDFLFIIPFDCWEPVQK
B5: ovine GM-CSF as used as ligand in bio-layer interferometry (ligand, UniProt P28773 18-144, looked up)
chain: B4 chain
notes: also called oGMCSF; oGM-CSF
B6: ovine GM-CSF, residues 18-144, C-terminal His6-tag, from HEK293T (ligand, UniProt P28773 18-144, looked up)
chain: B4 chain
notes: also called oGM-CSF; source: HEK293T, transient expression (pHLsec); purified (TALON IMAC, SEC) or co-expressed with GIF and purified as a complex

Legend:
[1] = molecular target: GIF R45A/R106A, residues 1-265, C-terminal AviTag, biotinylated (Orf virus) (UniProt Q9J5U5); experiment: BLI; biotinylated GIF (wild type or mutant) on streptavidin-coated biosensors, quenched with biocytin; ligand GM-CSF 1-8 uM or IL-2 3.75-30 nM; PBS pH 7.4, 0.01% BSA, 0.002% Tween-20; 298 K; Octet RED96; 1:1 interaction model; averages of triplicates
[2] = molecular target: GIF R188A, residues 1-265, C-terminal AviTag, biotinylated (Orf virus) (UniProt Q9J5U5); experiment: as above
[3] = molecular target: GIF R45A, residues 1-265, C-terminal AviTag, biotinylated (Orf virus) (UniProt Q9J5U5); experiment: as above
[4] = molecular target: GIF H232A, residues 1-265, C-terminal AviTag, biotinylated (Orf virus) (UniProt Q9J5U5); experiment: as above
[5] = molecular target: GIF R106A/R188A, residues 1-265, C-terminal AviTag, biotinylated (Orf virus) (UniProt Q9J5U5); experiment: as above
[6] = molecular target: GIF K211A, residues 1-265, C-terminal AviTag, biotinylated (Orf virus) (UniProt Q9J5U5); experiment: as above
[7] = molecular target: T1, Orf virus GM-CSF/IL-2 inhibition factor …; experiment: SEC-MALS; complexes purified after co-expression of GIF and cytokine in HEK293T; 1-2 mg/ml; Superdex Increase 10/300 GL in HBS pH 7.5, 298 K; conditions: both partners purified
[8] = molecular target: T2, Biotinylated Orf GIF, residues 1-265, …; experiment: BLI
[9] = molecular target: T3, Biotinylated Orf GIF, residues 1-265, …; experiment: BLI; biotinylated GIF on streptavidin sensors, quenched with biocytin; cytokine in solution (GM-CSF 1-8 μM, IL-2 3.75-30 nM); PBS pH 7.4, 0.01% BSA, 0.002% Tween-20, 298 K; 1:1 model, triplicates; conditions: one partner purified

Binder	Kd [1]	Kd [2]	Kd [3]	Kd [4]	Kd [5]	Kd [6]	stoichiometry N [7]	koff [8]	Kd [9]
B1	0.00045 µM	0.0048 µM	0.00069 µM	0.00063 µM	0.0053 µM	0.00046 µM			
B2							2 cytokines per GIF dimer (2:2)		
B3								0.00015 s⁻¹	0.00047 µM
B4	0.38 µM	0.57 µM	0.28 µM	0.67 µM	0.27 µM	3.7 µM			
B5								6.2e-05 s⁻¹	0.027 µM
B6							2 cytokines per GIF dimer (2:2)		
